Laboratory results: patent US20240400715A1 (VIBRANT PHARMA, published 2024)
Values belong to the binder of their own block, whether it stands above or below them.

Assays:
[1] = biological target: T1, human CD3ε/δ (ACRO systems, CDD-H52W1) (human, UniProt P07766 23-126; P04234 22-105); experiment: serum-stability ELISA, Day 10 vs Day 0
T1 construct: bought recombinant heterodimer; also called human CD3 epsilon/delta; Human CD3ε/CD3δ
Description: (§1) The samples to be tested were centrifuged at 4° C. at 12000 rpm for 30 minutes to remove the precipitate. 200 μl of each sample to be tested (0.5 mg/ml) was collected in a 1.5 ml Eppendorf tube. An equal volume of human serum (GEMINI, H2OYOOK) was added, mixed thoroughly, and the mixture was incubated in a 37° C. constant temperature CO₂ incubator. For a total of 10 days, 40 μl samples was aspirated every day and stored at −20° C.
(§2) Enzyme-linked immunosorbent assay (ELISA) was used to test the bispecific antibodies' binding to human CEA and human CD3 epsilon/delta antigen. The steps are as follows: the antigen human CD3ε/δ (ACRO systems, CDD-H52W1) and the recombinant tumor antigen human CEA (CEACAM-5/CD66e, ACRO systems, CE5-H5226) were diluted to 1 μg/ml with PBS, and then added to the 96-well plate at 100 μl per well. The wells were coated overnight at 4° C. After washing 3 times with 0.05% PBST, 200 μl 5% skimmed milk powder was added to each well and incubated at 37° C. for 2 h. After washing 3 times with 0.05% PBST, 100 μl primary antibody sample (10 μg/ml) was added to each well, and incubated at 37° C. for 2 h. After washing 3 times with 0.05% PBST, 100 μl (1:6000) diluted secondary antibody goat anti-human Fc-HRP (sigma, A2170) was added to each well, incubated at room temperature for 1 h. After washing 8 times with 0.05% PBST, 50 μl TMB color developing solution was added to each well, and incubated at room temperature for 10-15 min. 50 μl 1 mM HCl was added to each well to stop the color development. 450 nm Absorbance (OD) was read.
(§3) The binding of antibodies to antigen was calculated according to the following formula: Binding (%)=[(ODdayn−ODb)/(ODday0−ODb)]×100%. ODdayn: experimental well (the protein was stored in the serum for n days); ODday0: control well (the protein was not stored in the serum); ODb: blank well (no primary antibody added).

[2] = biological target: T1, human CD3ε/δ (ACRO systems, CDD-H52W1); experiment: serum-stability ELISA, Day 9 vs Day 0
Description: as §1, §2, §3

[3] = biological target: T1, human CD3ε/δ (ACRO systems, CDD-H52W1); experiment: serum-stability ELISA, Day 5 vs Day 0
Description: as §1, §2, §3

[4] = biological target: T1, human CD3ε/δ (ACRO systems, CDD-H52W1); experiment: serum-stability ELISA, Day 7 vs Day 0
Description: as §1, §2, §3

[5] = biological target: T1, human CD3ε/δ (ACRO systems, CDD-H52W1); experiment: serum-stability ELISA, Day 1 vs Day 0
Description: as §1, §2, §3

[6] = biological target: T1, human CD3ε/δ (ACRO systems, CDD-H52W1); experiment: serum-stability ELISA, Day 6 vs Day 0
Description: as §1, §2, §3

[7] = biological target: T1, human CD3ε/δ (ACRO systems, CDD-H52W1); experiment: serum-stability ELISA, Day 0 (reference)
[8] = biological target: T1, human CD3ε/δ (ACRO systems, CDD-H52W1); experiment: serum-stability ELISA, Day 2 vs Day 0
Description: as §1, §2, §3

B1: 205 (CEA-Fab-Knob-+Hole) (bispecific antibody, human IgG4 S228P, kappa, F234A L235A)
heavy: EVQLVESGGGFVQAGESLTLSCTSSTLTFTPYRMAWYRQAPGKQRDLVADISSGDGRTTNYADFAKGRFTISRDNIKNTVFLRMTNLKPEDTAVYYCNTFVSFVGIARSWGQGTQVTVSSGGGGSGGGGSEVKLLESGGGLVQPKGSLKLSCAASGFTFNTYAMNWVRQAPGKGLEWVARIRSKYNNYATYYADSVKDRFTISRDDSQSILYLQMNNLKTEDTAMYYCVRHGNFGNSYVSWFAYWGQGTLVTVSSASTKGPSVFPLAPCSRSTSESTAALGCLVKDYFPEPVTVSWNSGALTSGVHTFPAVLQSSGLYSLSSVVTVPSSSLGTKTYTCNVDHKPSNTKVDKRVESKYGPPCPPCPAPEAAGGPSVFLFPPKPKDTLMISRTPEVTCVVVDVSQEDPEVQFNWYVDGVEVHNAKTKPREEQFNSTYRVVSVLTVLHQDWLNGKEYKCKVSNKGLPSSIEKTISKAKGQPREPQVYTLPPCQEEMTKNQVSLWCLVKGFYPSDIAVEWESNGQPENNYKTTPPVLDSDGSFFLYSRLTVDKSRWQEGNVFSCSVMHEALHNHYTQKSLSLSL
chain: ESKYGPPCPPCPAPEAAGGPSVFLFPPKPKDTLMISRTPEVTCVVVDVSQEDPEVQFNWYVDGVEVHNAKTKPREEQFNSTYRVVSVLTVLHQDWLNGKEYKCKVSNKGLPSSIEKTISKAKGQPREPQVCTLPPSQEEMTKNQVSLSCAVKGFYPSDIAVEWESNGQPENNYKTTPPVLDSDGSFFLVSRLTVDKSRWQEGNVFSCSVMHEALHNRFTQKSLSLSL
light: QAVVTQESALTTSPGETVTLTCRSSTGAVTTSNYANWVQEKPDHLFTGLIGGTNKRAPGVPARFSGSLIGDKAALTITGAQTEDEAIYFCALWYSNLWVFGGGTKVEIKRTVAAPSVFIFPPSDEQLKSGTASVVCLLNNFYPREAKVQWKVDNALQSGNSQESVTEQDSKDSTYSLSSTLTLSKADYEKHKVYACEVTHQGLSSPVTKSFNRGEC
notes: VHH fused before VH of the heavy chain
Binding % [1]: 105% | Binding % [2]: 105% | Binding % [3]: 117% | Binding % [4]: 105% | Binding % [5]: 96.5% | Binding % [6]: 100% | Binding % [7]: 100% | Binding % [8]: 99.3%

B2: 206 (Knob+CEA-Fab-Hole) (bispecific antibody, human IgG4 S228P, kappa, F234A L235A)
chain: ESKYGPPCPPCPAPEAAGGPSVFLFPPKPKDTLMISRTPEVTCVVVDVSQEDPEVQFNWYVDGVEVHNAKTKPREEQFNSTYRVVSVLTVLHQDWLNGKEYKCKVSNKGLPSSIEKTISKAKGQPREPQVYTLPPCQEEMTKNQVSLWCLVKGFYPSDIAVEWESNGQPENNYKTTPPVLDSDGSFFLYSRLTVDKSRWQEGNVFSCSVMHEALHNHYTQKSLSLSL
heavy: EVQLVESGGGFVQAGESLTLSCTSSTLTFTPYRMAWYRQAPGKQRDLVADISSGDGRTTNYADFAKGRFTISRDNIKNTVFLRMTNLKPEDTAVYYCNTFVSFVGIARSWGQGTQVTVSSGGGGSGGGGSEVKLLESGGGLVQPKGSLKLSCAASGFTFNTYAMNWVRQAPGKGLEWVARIRSKYNNYATYYADSVKDRFTISRDDSQSILYLQMNNLKTEDTAMYYCVRHGNFGNSYVSWFAYWGQGTLVTVSSASTKGPSVFPLAPCSRSTSESTAALGCLVKDYFPEPVTVSWNSGALTSGVHTFPAVLQSSGLYSLSSVVTVPSSSLGTKTYTCNVDHKPSNTKVDKRVESKYGPPCPPCPAPEAAGGPSVFLFPPKPKDTLMISRTPEVTCVVVDVSQEDPEVQFNWYVDGVEVHNAKTKPREEQFNSTYRVVSVLTVLHQDWLNGKEYKCKVSNKGLPSSIEKTISKAKGQPREPQVCTLPPSQEEMTKNQVSLSCAVKGFYPSDIAVEWESNGQPENNYKTTPPVLDSDGSFFLVSRLTVDKSRWQEGNVFSCSVMHEALHNRFTQKSLSLSL
light: QAVVTQESALTTSPGETVTLTCRSSTGAVTTSNYANWVQEKPDHLFTGLIGGTNKRAPGVPARFSGSLIGDKAALTITGAQTEDEAIYFCALWYSNLWVFGGGTKVEIKRTVAAPSVFIFPPSDEQLKSGTASVVCLLNNFYPREAKVQWKVDNALQSGNSQESVTEQDSKDSTYSLSSTLTLSKADYEKHKVYACEVTHQGLSSPVTKSFNRGEC
notes: as for B1
Binding % [1]: 91.6% | Binding % [2]: 95.6% | Binding % [3]: 102% | Binding % [4]: 100% | Binding % [5]: 95.1% | Binding % [6]: 99.3% | Binding % [7]: 100% | Binding % [8]: 95.1%

Now from value to binder:

Binding % [1]: 95.7% | Binding % [2]: 98.8% | Binding % [3]: 100% | Binding % [4]: 95.9% | Binding % [5]: 95.7% | Binding % [6]: 97.4% | Binding % [7]: 100% | Binding % [8]: 96.1%
B3: 208 (Fab (Heavy)-Knob+Fab (Light)-Hole-CEA) (bispecific antibody, human IgG4 S228P, kappa, F234A L235A)
heavy: EVKLLESGGGLVQPKGSLKLSCAASGFTFNTYAMNWVRQAPGKGLEWVARIRSKYNNYATYYADSVKDRFTISRDDSQSILYLQMNNLKTEDTAMYYCVRHGNFGNSYVSWFAYWGQGTLVTVSSASTKGPSVFPLAPCSRSTSESTAALGCLVKDYFPEPVTVSWNSGALTSGVHTFPAVLQSSGLYSLSSVVTVPSSSLGTKTYTCNVDHKPSNTKVDKRVESKYGPPCPPCPAPEAAGGPSVFLFPPKPKDTLMISRTPEVTCVVVDVSQEDPEVQFNWYVDGVEVHNAKTKPREEQFNSTYRVVSVLTVLHQDWLNGKEYKCKVSNKGLPSSIEKTISKAKGQPREPQVYTLPPCQEEMTKNQVSLWCLVKGFYPSDIAVEWESNGQPENNYKTTPPVLDSDGSFFLYSRLTVDKSRWQEGNVFSCSVMHEALHNHYTQKSLSLSL
light: QAVVTQESALTTSPGETVTLTCRSSTGAVTTSNYANWVQEKPDHLFTGLIGGTNKRAPGVPARFSGSLIGDKAALTITGAQTEDEAIYFCALWYSNLWVFGGGTKVEIKRTVAAPSVFIFPPSDEQLKSGTASVVCLLNNFYPREAKVQWKVDNALQSGNSQESVTEQDSKDSTYSLSSTLTLSKADYEKHKVYACEVTHQGLSSPVTKSFNRGECESKYGPPCPPCPAPEAAGGPSVFLFPPKPKDTLMISRTPEVTCVVVDVSQEDPEVQFNWYVDGVEVHNAKTKPREEQFNSTYRVVSVLTVLHQDWLNGKEYKCKVSNKGLPSSIEKTISKAKGQPREPQVCTLPPSQEEMTKNQVSLSCAVKGFYPSDIAVEWESNGQPENNYKTTPPVLDSDGSFFLVSRLTVDKSRWQEGNVFSCSVMHEALHNRFTQKSLSLSLGGGGSGGGGSEVQLVESGGGFVQAGESLTLSCTSSTLTFTPYRMAWYRQAPGKQRDLVADISSGDGRTTNYADFAKGRFTISRDNIKNTVFLRMTNLKPEDTAVYYCNTFVSFVGIARSWGQGTQVTVSS
notes: two-chain format: VL-CL fused to hole Fc and VHH

Binding % [1]: 107% | Binding % [2]: 108% | Binding % [3]: 108% | Binding % [4]: 109% | Binding % [5]: 102% | Binding % [6]: 105% | Binding % [7]: 100% | Binding % [8]: 103%
B4: 209 (Fab (Light)-Knob-CEA+Fab (Heavy)-Hole) (bispecific antibody, human IgG4 S228P, kappa, F234A L235A)
light: QAVVTQESALTTSPGETVTLTCRSSTGAVTTSNYANWVQEKPDHLFTGLIGGTNKRAPGVPARFSGSLIGDKAALTITGAQTEDEAIYFCALWYSNLWVFGGGTKVEIKRTVAAPSVFIFPPSDEQLKSGTASVVCLLNNFYPREAKVQWKVDNALQSGNSQESVTEQDSKDSTYSLSSTLTLSKADYEKHKVYACEVTHQGLSSPVTKSFNRGECESKYGPPCPPCPAPEAAGGPSVFLFPPKPKDTLMISRTPEVTCVVVDVSQEDPEVQFNWYVDGVEVHNAKTKPREEQFNSTYRVVSVLTVLHQDWLNGKEYKCKVSNKGLPSSIEKTISKAKGQPREPQVYTLPPCQEEMTKNQVSLWCLVKGFYPSDIAVEWESNGQPENNYKTTPPVLDSDGSFFLYSRLTVDKSRWQEGNVFSCSVMHEALHNHYTQKSLSLSLGGGGSGGGGSEVQLVESGGGFVQAGESLTLSCTSSTLTFTPYRMAWYRQAPGKQRDLVADISSGDGRTTNYADFAKGRFTISRDNIKNTVFLRMTNLKPEDTAVYYCNTFVSFVGIARSWGQGTQVTVSS
heavy: EVKLLESGGGLVQPKGSLKLSCAASGFTFNTYAMNWVRQAPGKGLEWVARIRSKYNNYATYYADSVKDRFTISRDDSQSILYLQMNNLKTEDTAMYYCVRHGNFGNSYVSWFAYWGQGTLVTVSSASTKGPSVFPLAPCSRSTSESTAALGCLVKDYFPEPVTVSWNSGALTSGVHTFPAVLQSSGLYSLSSVVTVPSSSLGTKTYTCNVDHKPSNTKVDKRVESKYGPPCPPCPAPEAAGGPSVFLFPPKPKDTLMISRTPEVTCVVVDVSQEDPEVQFNWYVDGVEVHNAKTKPREEQFNSTYRVVSVLTVLHQDWLNGKEYKCKVSNKGLPSSIEKTISKAKGQPREPQVCTLPPSQEEMTKNQVSLSCAVKGFYPSDIAVEWESNGQPENNYKTTPPVLDSDGSFFLVSRLTVDKSRWQEGNVFSCSVMHEALHNRFTQKSLSLSL
notes: two-chain format: VL-CL fused to knob Fc and VHH
